Here are results for four molecules from patent US20240158497A1 (published 2024).

The Kd is a measure of binding affinity in units of concentration. Broadly, the koff is the rate constant with which the complex falls apart. Low readings indicate slow dissociation, high ones fast dissociation. Broadly, the kon is the rate constant with which the complex forms. A higher kon goes with fast association. By t½ is commonly meant how long it takes for the measured level to halve. Lower therefore signals rapid decline.

Test [1] concerns the target T1, human GP130 extracellular domain expressed with a C-terminal mouse IgG2a Fc tag (hGP130-mFc) (human).
T1 construct: also called dimeric human GP130
T1 chain: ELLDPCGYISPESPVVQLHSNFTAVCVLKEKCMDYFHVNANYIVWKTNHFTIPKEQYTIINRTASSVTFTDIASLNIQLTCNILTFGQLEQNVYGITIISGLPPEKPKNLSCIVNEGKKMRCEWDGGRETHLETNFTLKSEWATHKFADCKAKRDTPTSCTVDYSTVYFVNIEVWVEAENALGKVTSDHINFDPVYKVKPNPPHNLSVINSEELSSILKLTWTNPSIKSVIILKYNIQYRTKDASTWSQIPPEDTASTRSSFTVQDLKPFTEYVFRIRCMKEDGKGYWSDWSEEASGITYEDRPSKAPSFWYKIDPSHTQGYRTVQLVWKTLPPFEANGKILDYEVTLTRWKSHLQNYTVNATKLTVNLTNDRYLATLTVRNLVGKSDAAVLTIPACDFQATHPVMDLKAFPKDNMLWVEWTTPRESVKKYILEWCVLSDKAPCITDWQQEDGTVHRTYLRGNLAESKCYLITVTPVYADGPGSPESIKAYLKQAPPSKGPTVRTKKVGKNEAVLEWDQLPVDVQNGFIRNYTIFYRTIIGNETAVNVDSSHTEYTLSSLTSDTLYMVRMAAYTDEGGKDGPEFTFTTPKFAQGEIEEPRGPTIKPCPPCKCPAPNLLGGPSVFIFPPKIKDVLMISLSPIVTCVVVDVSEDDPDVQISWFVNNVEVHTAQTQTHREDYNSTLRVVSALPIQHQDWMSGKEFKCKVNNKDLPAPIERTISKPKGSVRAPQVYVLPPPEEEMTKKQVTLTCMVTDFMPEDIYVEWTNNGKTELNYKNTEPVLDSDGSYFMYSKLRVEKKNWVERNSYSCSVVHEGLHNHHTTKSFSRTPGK
The test can be described thus: SPR Biacore, mAb captured via anti-hFc, 25 C. The protocol: (§1) Equilibrium dissociation constant (KD) for different GP130 reagents binding to purified anti-GP130 monoclonal antibodies were determined using a real-time surface plasmon resonance based Biacore 4000 biosensor. All binding studies were performed in 10 mM HEPES, 150 mM NaCl, 3 mM EDTA, and 0.05% v/v Surfactant Tween-20, pH 7.4 (HBS-ET) running buffer at 25° C. and 37° C. The Biacore sensor surface was first derivatized by amine coupling with a monoclonal mouse anti-human Fc antibody (GE, #BR-1008-39) to capture anti-GP130 monoclonal antibodies. […] Reagents tagged with “mmH” are monomeric, whereas reagents tagged with “mFc” are dimeric. Thus, for example, “hGP130-mmH” is also referred to as “monomeric human GP130,” and “hGP130-mFc” is also referred to as “dimeric human GP130.”
(§2) The association rate (k a) and dissociation rate (kd) were determined by fitting the real-time binding sensorgrams to a 1:1 binding model with mass transport limitation using Scrubber 2.0c curve-fitting software. Binding dissociation equilibrium constant (KD) and dissociative half-life (t ½) were calculated from the kinetic rates as: […]

Test [2] addresses T2, rat GP130 extracellular domain expressed with a C-terminal myc-myc-hexahistidine tag (rGP130-mmH) (rat, UniProt P40190 23-618).
T2 construct: Monomeric; the entry includes the myc-myc-His tag
As to the kind of experiment: SPR Biacore, mAb captured via anti-hFc, 25 C. Here is the method: as §1, §2
For orientation: Surface plasmon resonance follows binding to a sensor surface in real time, without labels.

Test [3] concerns the target T3, mouse GP130 extracellular domain expressed with a C-terminal myc-myc-hexahistidine tag (mGP130-mmH) (mouse, UniProt Q00560 23-617).
T3 construct: Monomeric; the entry includes the myc-myc-His tag
The test can be described thus: SPR Biacore, mAb captured via anti-hFc, 25 C. Here is the method: as §1, §2

In test [4] the target is T1, human GP130 extracellular domain …. As to the kind of experiment: SPR Biacore, mAb captured via anti-hFc, 37 C. Here is the method:
as §1, §2

Test [5] deals with T2, rat GP130 extracellular domain …. The test can be described thus: SPR Biacore, mAb captured via anti-hFc, 37 C. The protocol: as §1, §2
In test [6] the target is T3, mouse GP130 extracellular domain …. As to the kind of experiment: SPR Biacore, mAb captured via anti-hFc, 37 C. Here is the method: as §1, §2

T2 sequence (P40190 other isoform, or with tags, fused parts or gaps): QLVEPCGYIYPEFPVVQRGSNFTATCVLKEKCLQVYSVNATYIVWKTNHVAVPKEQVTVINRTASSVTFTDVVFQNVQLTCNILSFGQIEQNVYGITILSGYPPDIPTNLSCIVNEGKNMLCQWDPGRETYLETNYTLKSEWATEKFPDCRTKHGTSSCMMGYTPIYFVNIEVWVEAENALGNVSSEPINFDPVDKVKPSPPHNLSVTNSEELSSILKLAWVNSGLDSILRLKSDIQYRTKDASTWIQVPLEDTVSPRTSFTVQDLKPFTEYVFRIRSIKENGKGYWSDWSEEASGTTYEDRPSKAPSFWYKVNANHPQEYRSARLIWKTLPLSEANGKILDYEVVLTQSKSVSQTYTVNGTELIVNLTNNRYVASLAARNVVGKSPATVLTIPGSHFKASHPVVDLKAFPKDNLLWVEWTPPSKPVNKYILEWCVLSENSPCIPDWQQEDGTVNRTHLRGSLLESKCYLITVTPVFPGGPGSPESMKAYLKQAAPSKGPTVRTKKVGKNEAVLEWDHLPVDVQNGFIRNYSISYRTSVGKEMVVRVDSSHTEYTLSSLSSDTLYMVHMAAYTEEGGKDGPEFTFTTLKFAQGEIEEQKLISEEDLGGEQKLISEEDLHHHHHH
T3 sequence (Q00560 other isoform, or with tags, fused parts or gaps): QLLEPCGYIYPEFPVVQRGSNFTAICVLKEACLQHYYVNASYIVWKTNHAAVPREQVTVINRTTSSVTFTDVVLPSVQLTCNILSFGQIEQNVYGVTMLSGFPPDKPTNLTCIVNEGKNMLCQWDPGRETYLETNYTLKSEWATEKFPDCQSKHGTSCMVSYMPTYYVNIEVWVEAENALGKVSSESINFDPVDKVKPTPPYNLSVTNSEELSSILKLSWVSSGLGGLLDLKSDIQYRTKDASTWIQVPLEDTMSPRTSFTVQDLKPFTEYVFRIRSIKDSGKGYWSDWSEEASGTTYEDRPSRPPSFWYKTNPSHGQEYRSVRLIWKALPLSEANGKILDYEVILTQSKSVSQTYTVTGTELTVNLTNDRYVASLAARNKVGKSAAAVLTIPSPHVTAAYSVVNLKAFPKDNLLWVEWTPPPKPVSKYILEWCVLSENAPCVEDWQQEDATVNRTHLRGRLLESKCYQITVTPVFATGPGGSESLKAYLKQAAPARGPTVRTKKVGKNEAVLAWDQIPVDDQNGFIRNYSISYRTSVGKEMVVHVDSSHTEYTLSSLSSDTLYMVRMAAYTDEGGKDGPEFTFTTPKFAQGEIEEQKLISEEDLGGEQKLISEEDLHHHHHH

B1: MAb16659 (antibody, V domains shown)
VH: QVQLVQSGPEVKKPGSSVKVSCKASGGTIDRNEITWVRQAPGQGLEWMGVIIPILGEAHYERKFQGRLTITMDESTSTAYMELSNLRSEDTAVYYCARERAARGYLDYWGQGTLVTVSS
VL: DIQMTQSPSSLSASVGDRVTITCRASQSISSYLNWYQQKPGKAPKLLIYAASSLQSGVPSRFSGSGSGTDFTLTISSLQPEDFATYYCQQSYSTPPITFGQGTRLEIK
notes: captured through anti-human Fc
B1: in test [1], the “100 nM Ag Bound (RU)” value amounted to 186 RU, binding was put at a Kd of 0.0366 nM, the koff amounted to 6.28e-05 s⁻¹ and the kon is 1.72e+06 M⁻¹ s⁻¹. Besides, the t½ in test [1] turned out to be 184 min. In test [2], the “100 nM Ag Bound (RU)” value was 2 RU and the binding result is “no binding (tested: 100 nM)”. For the same molecule, the “100 nM Ag Bound (RU)” value in test [3] is 1 RU. Also, in test [4], the “100 nM Ag Bound (RU)” value stood at 227 RU, the Kd was found to be 0.0249 nM, the koff is 4.76e-05 s⁻¹ and the kon was found to be 1.91e+06 M⁻¹ s⁻¹. The molecule also gave a t½ in test [4] of 243 min. For the same molecule, the “100 nM Ag Bound (RU)” value in test [5] turned out to be 1 RU. In test [6], the “100 nM Ag Bound (RU)” value is 1 RU and the binding result is “no binding (tested: 100 nM)”.

B2: MAb16662 (antibody, V domains shown)
VH: EVQLVESGGGLVQPGGSLRLSCTASGFTFSNYAIFWVRQAPGKGLEYVSGISNNGVTKYYADSVRDRFTISRDNSRNTVSIQMDSLRTEDMAVYYCARENWGSDDGFDIWGQGTMVTVSS
VL: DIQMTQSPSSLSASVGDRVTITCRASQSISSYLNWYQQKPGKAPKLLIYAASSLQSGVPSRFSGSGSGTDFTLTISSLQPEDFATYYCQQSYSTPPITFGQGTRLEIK
notes: as for B1
In the case of B2, the “100 nM Ag Bound (RU)” value in test [1] is 90 RU; in test [2], -1 RU; in test [3], -1 RU; in test [4] it was 114 RU; in test [5] it was 1 RU; in test [6], 1 RU. The Kd is 0.772 nM in test [1] and 4.15 nM in test [4]. The off-rate (koff) amounted to 0.000479 s⁻¹ in test [1] and 0.00265 s⁻¹ in test [4]. For the same molecule, the results for the kon in test [1] and in test [4] were 620000 M⁻¹ s⁻¹ and 639000 M⁻¹ s⁻¹, respectively. Further, the t½ was found to be 24 min in test [1] and 4 min in test [4].

B3: MAb16665 (antibody, V domains shown)
VH: QVQLVESGGGVVQPGRSLRLACAASGFTFRSYGMHWVRQAPGKGLEWVAVIWYDGSNKYYTDSVKGRFTISRDNSKNTLYLQMNSLRAEDTAMYYCAIDKWATVTTYLFDYWGQGTLVTVSS
VL: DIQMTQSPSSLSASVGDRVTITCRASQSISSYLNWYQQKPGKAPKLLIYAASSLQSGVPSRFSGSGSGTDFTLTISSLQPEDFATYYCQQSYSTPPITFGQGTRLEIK
notes: as for B1
Take B3: the “100 nM Ag Bound (RU)” value in test [1] was 158 RU; in test [2] it was 0 RU; in test [3] it was 0 RU; in test [4], 172 RU; in test [5], -1 RU; in test [6], -1 RU. Besides, the Kd in test [1] was determined as 2.72 nM; in test [4] it was 3.92 nM. Moreover, the koff was found to be 0.00109 s⁻¹ in test [1] and 0.00256 s⁻¹ in test [4]. Also, the kon came out at 399000 M⁻¹ s⁻¹ in test [1] and 653000 M⁻¹ s⁻¹ in test [4]. The t½ in test [1] is 11 min; in test [4] it was 5 min.

B4: MAb16664 (antibody, V domains shown)
VH: QVQLVQSGTEVKKPGSSVKVSCKASGGTFSTYPINWVRQAPGQGLEWMGGIIPIFGTASYAQKFQGRVAITTDESTSTAYMELNSLRSEDTAVYYCARERPNWGSNDYWGQGTLVTVSS
VL: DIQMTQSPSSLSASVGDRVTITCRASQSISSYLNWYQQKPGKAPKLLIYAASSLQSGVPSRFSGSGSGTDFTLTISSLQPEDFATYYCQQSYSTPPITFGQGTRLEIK
notes: as for B1
For B4, in test [1], the “100 nM Ag Bound (RU)” value was found to be 26 RU, the Kd turned out to be 0.116 nM, the koff was 0.000354 s⁻¹ and the kon worked out at 3.05e+06 M⁻¹ s⁻¹. Further, the t½ in test [1] was determined as 33 min. In test [2], the “100 nM Ag Bound (RU)” value was 0 RU and the binding result is reported as “no binding (tested: 100 nM)”. In addition, the “100 nM Ag Bound (RU)” value in test [3] was determined as 0 RU. In test [4], the “100 nM Ag Bound (RU)” value was 37 RU, binding was put at a Kd of 0.0815 nM, the koff stood at 0.000109 s⁻¹ and the kon is 1.33e+06 M⁻¹ s⁻¹. The molecule further yielded a t½ in test [4] of 106 min. For the same molecule, the “100 nM Ag Bound (RU)” value in test [5] stood at 0 RU. Also, in test [6], the “100 nM Ag Bound (RU)” value was found to be 1 RU and the binding result was “no binding (tested: 100 nM)”.
